The values that follow come from US20160008398A1.

The target in assay [1] is CMV pp65 presented by HLA-A*0201.
The target of another assay is 4-1BB (human) (UniProt Q07011).

“CMV pp65-specific T lymphocytes (cells without a defined receptor)” gave a T cell expansion after weekly restimulation with HLA-A*0201^+ pp65-transduced Caco-2 tumor cells in assay [1] of 209 fold.
In the assay with 4-1BB (human), “dsRed-monomer-4-1 BBL fusion protein (from UniProt P41273) (ligand)” came in with a Granzyme B density near the immunological synapse (fold reduction) of 2.02.
